The supplement of paper PMC10567573

B1: MLL5 (parent)
chain: HDDGYMICCDKCSVWQHIDCMGID

Variants of: B1
Experiment: protein stability index of a GFP-peptide fusion (GPS, HEK-293T) (PSI 1-6); higher = more stable
Conditions: c terminus: a fixed tail appended
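Note: lentivirally expressed fusions sorted by FACS into six bins by GFP to DsRed ratio, PSI derived from sequencing read proportions per bin multiplied by bin number.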

Protein stability index: each site, then its substitutions
Y5: R 3.42; M 2.83; K 3.53; P 2.9; L 2.78; F 1.74; D 3.14; H 3.79; E 3.39; V 2.96; G 3.53; I 2.98; C 3.04; S 2.84; A 3.46; T 3.96; W 2.03; N 3.3; Q 3.19
C9: N 2.77; R 2.76; I 2.1; M 1.99; H 2.86; T 3.75; K 2.85; P 3.03; G 3.81; L 2.12; W 2.16; Y 1.47; S 3.81; E 3.42; D 3.74; V 2.67; F 2.43; A 2.56; Q 3
C12: G 2.67; M 2.05; L 1.7; H 2.65; V 1.93; R 2.28; F 1.76; E 3.63; K 3.46; D 3.54; N 3.05; P 2.56; S 3.01; Y 2.91; Q 2.46; W 2.32; A 2.71; I 1.92; T 2.74
G4: V 2.1; W 2.56; Y 2.48
G22: D 3.8; M 2.25; H 2.79; R 2.43; S 2.14; E 2.4; P 2.39; F 2.04; K 2.78; N 2.58; L 1.81; C 3.79; I 2.06; Q 2.17; A 2.2
C20: E 2.29; G 2.19; A 2.5; T 2.22; P 2.31; Y 1.68; I 2.08; H 2.12; D 2.58; W 2.15; L 1.86; N 2.81; S 1.51; F 1.28; M 1.79; V 1.89; R 1.97; K 2.06; Q 2.02
S13: H 2.09; Y 1.93; T 2.72; Q 2.59; K 2.43; W 2.37; A 1.73; N 2.56; C 3.19; P 2.7; V 1.85; G 3.48; F 1.8; E 2.55; M 2.45; D 2.18; L 2.18; R 3.31
I7: A 3.2; G 3.82; N 3.12; V 2.79; Q 3.51; R 2.45; H 3.55; P 2.71; F 2.72; L 2.06; M 2.29; Y 2.77; E 3.23; W 3.09; D 3.42; T 2.93; K 3.45; C 3.79
D10: R 2.4; K 2.51; V 3.07; A 1.71; Y 2.88; F 2.44; E 2.41; T 1.69; S 2.72; G 1.92; M 2.95; P 2.36; I 3.54; N 2.41; Q 2.29; C 2.71
V14: N 3.05; G 2.94; R 2.77; A 2.41; W 2.11; M 2.06; K 3.22; E 3.73; D 3.37; Y 2.12; F 1.86; Q 2.83; P 3.12; H 3.23; T 2.93; L 1.78; C 2.57; S 2.77; I 2.57
C8: Q 2.96; V 1.64; A 3.27; K 2.25; Y 2.12; G 2.59; N 2.43; F 1.56; M 1.68; P 3.12; R 2.51; L 2.46; I 1.9; T 2.66; W 1.86; H 2.37; S 1.83; E 2.73; D 3.19
M6: N 3.14; C 3.2; T 2.41; D 2.96; L 2.59; E 2.79; P 2.96; V 3.1; K 2.43; Y 2.14; H 4.05; F 2.22; R 3.35; S 2.91; A 3.37; Q 2.46; W 2; G 2.4; I 2.65
M21: H 2.61; P 3.14; N 2.73; D 3.5; I 2.5; G 2.66; R 2.85; L 2.34; Y 2.21; T 2.91; Q 2.91; C 2.78; E 2.83; W 2.03; S 2.41; K 2.81; A 2.94; V 2.34; F 2.17
K11: S 2.68; M 1.55; Q 2.94; Y 1.86; H 2.1; E 2.39; R 1.85; D 2.79; I 2; F 1.05; T 1.81; P 2.4; A 1.82; C 3.26; L 2.23; N 2.31; G 3.03; V 1.5
I18: E 3.5; W 2.38; C 3.93; S 3.06; T 2.44; D 3.71; Y 2.6; H 3.6; F 2.35; Q 3.42; M 3.14; G 3.5; L 2.28; P 2.94; K 3.36; A 2.9; N 2.52; V 1.99; R 3.32
W15: L 3.16; D 4.24; E 4.13; H 3.93; V 3.59; R 3.18; K 3.61; N 3.79; A 3.38; P 3.6; F 3.11; Y 2.73; S 3.69; I 2.43; G 4.18; Q 3.63; C 3.49; T 3.7; M 3.18
H17: E 2.89; C 3.54; Y 1.63; G 2.72; D 2.5; T 1.64; N 2.32; I 1.34; Q 2.48; V 2.8; L 1.98; R 1.95; A 2.16; S 2.48; K 1.52; M 2.82; P 2.18; F 1.65
Q16: F 2.02; W 1.61; R 2.48; G 2.71; P 3.15; T 1.69; H 2.48; N 2.42; C 2.4; Y 1.07; E 2.6; M 2.65; K 2.35; V 2.82; D 2.08; L 2.75; I 1.77; S 1.93; A 1.47
D19: M 2; V 3.42; N 1.91; G 2.84; Q 2.62; S 1.78; R 2.43; E 2.57; A 2.04; Y 1.72; K 2.52; I 2.25; P 2.33; W 1.98; F 1.74; C 2.94; H 2.2; L 2.14; T 2.33
